As usually defined, the Kd is a measure of binding affinity in units of concentration. Low values mean tighter binding, high ones weaker binding.

Experimental findings from article PMC3833262 (2014) are described below.

The data set concerns the molecule itself. The data set can be described thus: multi-angle light scattering.

B1: arrestin-1 (protein)
chain: MAACGKTNKSHVIFKKVSRDKSVTIYLGKRDYVDHVSQVEPVDGVVLVDPELVKGKKVYVTLTCAFRYGQEDIDVMGLTFRRDLYFSRVQVYPPVGAMSVLTQLQESLLKKLGDNTYPFLLTFPDYLPCSVMLQPAPQDVGKSCGVDFEVKAFASDITDPEEDKIPKKSSVRLLIRKVQHAPPEMGPQPSAEASWQFFMSDKPLNLSVSLSKEIYFHGEPIPVTVTVTNNTDKVVKKIKVSVEQIANVVLYSSDYYVKPVASEETQEKVQPNSTLTKTLVLVPLLANNRERRGIALDGKIKHEDTNLASSTIIKEGIDRTVMGILVSYHIKVKLTVSGFLGELTSSEVATEVPFRLMHPQPEDPAKESVQDENLVFEEFARQNLKDTGENTEGKKDEDAGQDE
Consider B1, for which the Kd is 57.5 µM.
